Positions count from the first letter of the chain named.

Sequences and labels used below:
B1: 04H1637-G1m/04L1610-lam1 (antibody, human IgG1, lambda)
heavy: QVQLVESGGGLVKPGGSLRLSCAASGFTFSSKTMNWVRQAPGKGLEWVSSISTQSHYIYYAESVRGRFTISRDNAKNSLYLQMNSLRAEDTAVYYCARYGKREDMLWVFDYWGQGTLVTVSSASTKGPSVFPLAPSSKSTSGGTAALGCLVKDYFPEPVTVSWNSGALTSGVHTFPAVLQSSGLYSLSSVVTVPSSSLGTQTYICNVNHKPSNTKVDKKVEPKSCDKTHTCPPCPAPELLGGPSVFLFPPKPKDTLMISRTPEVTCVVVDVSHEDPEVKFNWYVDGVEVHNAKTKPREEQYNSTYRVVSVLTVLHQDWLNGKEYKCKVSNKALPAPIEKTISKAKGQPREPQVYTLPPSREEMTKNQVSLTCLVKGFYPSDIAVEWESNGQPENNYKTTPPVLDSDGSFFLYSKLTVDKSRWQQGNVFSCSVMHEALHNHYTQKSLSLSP
light: QSALTQPPSASGSPGQSVTISCEGPSTGVGDYNWVHWYQQHPGKAPKLMIYFTSKKPSGVPDRFSGSKSGNTASLTVSGLQAEDEADYYCQTYAAPLGPMFGGGTKLTVLGQPKAAPSVTLFPPSSEELQANKATLVCLISDFYPGAVTVAWKADSSPVKAGVETTTPSKQSNNKYAASSYLSLTPEQWKSHRSYSCQVTHEGSTVEKTVAPTECS
B2: 04H1654-G1m/04L1606-lam1 (antibody, human IgG1, lambda, V domains shown)
VH: QVQLVESGGGVVQPGGSLRLSCAASGFTFSSKTMNWVRQAPGKGLEWVSSISTQSHYIYYARSVRGRFTISRDNAKNSLYLQMNSLRAEDTAVYYCARYGKREDMLWVFDYWGQGTLVTVSS
VL: QSALTQPPSASGSPGQSVTISCQGPSTGVGDYNWVHWYQQHPGKAPKLMIYFTSKKPSGVPDRFSGSKSGNTASLTVSGLQAEDEADYYCQTYAAPLGPMFGGGTKLTVLG
B3: 04H1643-G1m/04L1610-lam1 (antibody, human IgG1, lambda)
heavy: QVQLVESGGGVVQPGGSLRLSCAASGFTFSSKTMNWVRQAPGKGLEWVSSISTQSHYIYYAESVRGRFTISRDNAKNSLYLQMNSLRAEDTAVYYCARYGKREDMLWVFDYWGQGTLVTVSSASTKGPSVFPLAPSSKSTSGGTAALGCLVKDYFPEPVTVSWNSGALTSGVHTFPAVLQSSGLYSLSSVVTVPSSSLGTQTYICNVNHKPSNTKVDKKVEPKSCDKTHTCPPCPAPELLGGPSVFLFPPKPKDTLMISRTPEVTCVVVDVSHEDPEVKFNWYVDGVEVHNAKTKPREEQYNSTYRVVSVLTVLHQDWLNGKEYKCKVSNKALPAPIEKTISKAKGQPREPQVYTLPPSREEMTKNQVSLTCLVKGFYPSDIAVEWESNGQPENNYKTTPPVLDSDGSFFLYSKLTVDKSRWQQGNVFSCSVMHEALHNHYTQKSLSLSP
light: B1 light
B4: 04H1389v373-G1m/04L1086-lam1 (antibody, human IgG1, lambda)
heavy: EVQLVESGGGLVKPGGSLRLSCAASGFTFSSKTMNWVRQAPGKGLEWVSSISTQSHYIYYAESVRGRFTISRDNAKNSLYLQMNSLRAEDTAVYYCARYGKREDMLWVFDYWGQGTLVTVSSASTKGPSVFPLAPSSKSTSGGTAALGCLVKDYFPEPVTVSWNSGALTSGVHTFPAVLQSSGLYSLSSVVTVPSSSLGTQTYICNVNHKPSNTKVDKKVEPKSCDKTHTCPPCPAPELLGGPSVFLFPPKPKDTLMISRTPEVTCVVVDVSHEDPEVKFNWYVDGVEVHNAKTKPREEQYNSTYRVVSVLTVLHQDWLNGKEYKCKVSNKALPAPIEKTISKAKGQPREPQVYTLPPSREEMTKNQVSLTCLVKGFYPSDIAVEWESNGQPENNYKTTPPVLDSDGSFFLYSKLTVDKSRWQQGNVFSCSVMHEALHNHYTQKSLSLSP
light: B1 light with S17T, E23D, W34Y, Y89F
B5: 04H1637-G1m/04L1581-lam1 (antibody, human IgG1, lambda, V domains shown)
VH: B2 VH with V11L, Q13K, R62E
VL: B2 VL with N33T, S54I, S58K
B6: 04H1637-G1m/04L1086-lam1 (antibody, human IgG1, lambda)
heavy: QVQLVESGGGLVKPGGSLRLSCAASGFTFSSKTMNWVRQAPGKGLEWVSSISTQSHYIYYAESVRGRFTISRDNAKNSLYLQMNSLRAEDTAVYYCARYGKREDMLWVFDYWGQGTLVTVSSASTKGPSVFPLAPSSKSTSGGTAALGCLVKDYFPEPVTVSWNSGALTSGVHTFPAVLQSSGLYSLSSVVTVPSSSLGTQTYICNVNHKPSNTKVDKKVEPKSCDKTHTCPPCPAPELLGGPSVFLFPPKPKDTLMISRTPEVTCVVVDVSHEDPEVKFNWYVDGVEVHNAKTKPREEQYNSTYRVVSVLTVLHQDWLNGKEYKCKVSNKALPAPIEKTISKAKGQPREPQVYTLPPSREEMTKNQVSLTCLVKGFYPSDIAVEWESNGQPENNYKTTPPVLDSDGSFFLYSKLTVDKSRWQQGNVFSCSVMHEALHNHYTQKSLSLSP
light: B1 light with S17T, E23D, W34Y, Y89F
B7: 04H1656-G1m/04L1606-lam1 (antibody, human IgG1, lambda, V domains shown)
VH: B2 VH with R62E, K101A
VL: B2 VL
B8: 04H1637-G1m/04L1594-lam1 (antibody, human IgG1, lambda, V domains shown)
VH: B2 VH with V11L, Q13K, R62E
VL: B2 VL with S58K

One experiment deals with T1, human CTLA4 (human).
T1 construct: also called hCTLA4; hCTLA4-His-BAP
T1 sequence (chain, as listed by the source limits assumed): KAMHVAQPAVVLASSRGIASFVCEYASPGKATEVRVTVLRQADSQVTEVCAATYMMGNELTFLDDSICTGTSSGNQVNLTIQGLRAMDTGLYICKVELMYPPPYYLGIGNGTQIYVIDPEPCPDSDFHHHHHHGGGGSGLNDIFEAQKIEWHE
Briefly: SPR Biacore T200, 37C, antibody captured, ATP 10 uM. On the technique in general: Surface plasmon resonance follows binding to a sensor surface in real time, without labels.
For the molecule B1, binding was put at a Kd of 18 nM.

B2: the Kd (as a rule, the concentration at which binding is half-saturated) was 25 nM.

The molecule B3 showed a Kd of 14 nM.

B4 gave a Kd of 28 nM.

Turning to B5, the Kd is 17 nM.

For B6, the dissociation constant Kd came to 30 nM. Compared with the last molecule, the Kd is about 1.8-fold higher.

For the molecule B7, the Kd amounted to 19 nM. This Kd is about 1.6-fold lower than that of the molecule before.

With B8, the Kd worked out at 28 nM.

A further experiment deals with T1, human CTLA4. Briefly: SPR Biacore T200, 37C, antibody captured, no ATP, steady state model.
Protocol: Biacore T200 was used to measure the binding of the generated antibodies to human CTLA4. 20 mM ACES (pH 7.4), 150 mM NaCl, 2 mM MgCl₂, 0.05% Tween 20 with ATP added to the desired concentration was used as the running buffer, and the assay was performed at 37° C. First, Protein G (CALBIOCHEM) was immobilized onto a Series S Sensor Chip CM3 (GE Healthcare), and the antibodies were captured by interacting an antibody solution prepared in an ATP-free running buffer with the chip. Next, by interacting with a human CTLA4 solution prepared in a running buffer containing ATP to the desired concentration, or a human CTLA4 solution prepared in a running buffer containing no ATP, the binding ability of the antibody to human CTLA4 in the presence or absence of ATP was evaluated. Chips were regenerated with 25 mM NaOH and 10 mM Glycine-HCl (pH 1.5), and assay was performed by repeatedly capturing antibodies. The dissociation constant of each antibody for CTLA4 was calculated using Biacore T200 Evaluation Software 2.0. Specifically, the binding rate constant ka (L/mol/s) and the dissociation rate constant kd (1/s) were calculated by global fitting of the sensorgrams obtained by the measurement, using a 1:1 Langmuir binding model. The dissociation constant KD (mol/L) was calculated from those values. Alternatively, the dissociation constant KD (mol/L) was calculated by the steady state model.
In turn, B1 displayed a Kd of 3300 nM.

B2 gave a Kd of 6800 nM.

As to B3, binding was put at a Kd of 2800 nM.

Take B4: binding was put at a Kd of 5300 nM.

The molecule B5 had a dissociation constant (Kd) of 3200 nM.

In the case of B6, binding was characterised by a dissociation constant (Kd) of 5300 nM.

As for B7, the dissociation constant Kd was found to be 2300 nM.

The molecule B8 had a Kd of 4300 nM.

The next experiment addresses T1, human CTLA4. Briefly: SPR Biacore T200, 37C, antibody captured, ATP 1 uM.
For the molecule B1, binding was put at a Kd of 100 nM.

The molecule B2 registered a Kd of 140 nM.

For B3, the Kd was 89 nM. This Kd is about 1.6-fold lower than that of the molecule before.

For B4, the affinity, expressed as Kd, was 140 nM.

B5 gave a dissociation constant Kd of 89 nM.

B6 registered a Kd of 160 nM.

As to B7, the Kd turned out to be 95 nM.

B8 gave a dissociation constant (Kd) of 140 nM.

In the next experiment the target is T1, human CTLA4. Briefly: SPR Biacore T200, 37C, antibody captured, ADP 10 uM.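 Further: antibodies held on a Protein G CM3 chip, human CTLA4 as analyte in ACES pH 7.4 buffer, rates from a global 1:1 Langmuir fit, Kd from rates or steady state.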
Take B1: the dissociation constant (Kd) was found to be 22 nM; the koff (as a rule, a measure of how fast the partners let go of each other) came out at 0.0035 s⁻¹; the kon – broadly, the second-order rate constant of association – was determined as 160000 M⁻¹ s⁻¹.

Regarding B2, binding was characterised by a dissociation constant (Kd) of 35 nM, the koff is 0.0028 s⁻¹ and the on-rate constant (kon) came out at 80000 M⁻¹ s⁻¹.

As for B7, the Kd stood at 30 nM, the koff came to 0.0048 s⁻¹ and the kon worked out at 160000 M⁻¹ s⁻¹.

In the next experiment the target is T1, human CTLA4. Briefly: SPR Biacore T200, 37C, antibody captured, ATP 10 uM. This is another data set of the same source.
Molecule B1 registered a dissociation constant Kd of 15 nM, a koff of 0.0019 s⁻¹ and an association rate constant (kon) of 120000 M⁻¹ s⁻¹.

For the molecule B2, the Kd is 21 nM, the koff was found to be 0.0013 s⁻¹ and the kon was 65000 M⁻¹ s⁻¹.

For B7, the Kd amounted to 19 nM, the koff turned out to be 0.0022 s⁻¹ and the kon was determined as 120000 M⁻¹ s⁻¹.

A further experiment addresses T1, human CTLA4. Briefly: SPR Biacore T200, 37C, antibody captured, AMP 10 uM.
B1 yielded a Kd of 70 nM, a dissociation rate constant (koff) of 0.01 s⁻¹ and a kon of 150000 M⁻¹ s⁻¹.

B2 registered a Kd of 110 nM, an off-rate (koff) of 0.009 s⁻¹ and a kon of 81000 M⁻¹ s⁻¹.

The molecule B7 registered a Kd of 100 nM, a koff of 0.016 s⁻¹ and a kon of 160000 M⁻¹ s⁻¹.

The values above are taken from patent publication US20260022175A1 (Chugai, published 2026).
